Source: the DeepSol protein solubility set

Assay: soluble on expression in E. coli; label from the status in PepcDB or PDB records

Soluble on expression in E. coli, not soluble:
GPGSMRLTSRGSHNSSQVVYLLDTREFITDCSTVRQVTHFAHVHRLGSPLWLSCELASALGLTLRYMCSPLNIWSPLTGESFVQLASSPALARDTLYKFPINKEFLAPGGVLPHNSGEGSLMALSAAASSDGKPRWYNIPKDVSHLFVLPKNLCQLSVPVHRGGFRPRPFNLWVSTVIAVRMGGLAEAVKTVRTPSSFMTLVNADQMYPSALLAEKELECVLLMRKEGRLGEM
MQQIFFKDPILGEVLFDQQTKWMYELVETEAFRRLRNIKQLGINFHFYPGGVHT
MAHHHHHHMGKPKYLKKKQAAAAAGSEDGADKDVSDNTENTNGSPTTTNALGKQSEAAKEEPHSSGAMVSFANPVYRQGVNDILVEKLDISYQGNAILENATLNLVSGHRYGLVGPNGCGKSTLLRVLGCHEIPFPSHVDRYYVSQEVEASDMSALDAVLAVDKEREKLESEMEDLALGDQEDPHVLSRLDDIYKRLDELDADTAAARAGKILFGLGFTKEMQRRPTKAFSGGWRMRISLAQALFINPTVLLLDEPTNHLDIEAVVWLENYLSKFKKTLFMVSHSQDFMNNVCTDICHMHLKKLNCYDGNYDQYCITREEKESNQMKKYQWEQNQIKNMKEYIARFGHGSAKLARQAQSKEKTLAKMTRGGLTDAVVKDSRINFEFPCAGPLPPPMLQFREVSFNYPGRPSLFTNLDLGVNMDSRICLVGPNGAGKTTLTKLMCRELEPTAGYVAKNAHCVMARFHQHFVDQINMDLTPLEWMSQEYPDVTQPPILRSALGRFGVSGKAQMTPMKTLSDGQKSRVVFAWMAYKRPHFMILDEPTNHLDIESIDALADAINNFEGAVVVVSHDLRLLAQVADEIWIVEQGEAKRFNGDIADYKEHVQNEVNRMMQNYAASL
DNGLHYSVGFNLSDTRAEITKYDNPTKSLSSPYYEGQIVGDIWGYESSLFQSADEIASAPDQSKLDGGISKVPGDIRFMDIDGNGVVDYGENTVDKPGDMKIIGNNKARYRYGFNISADWKGFDLGIFFQGVGKRDLMLPYTFKWQYGSMWQVSTAVGNDYWREDNAGGWLPVARFNGSQALGQNQTRYLLDASYLRLKSLSFGYTLPVSLTKQWGIQKCRVYFTGENLLTFKHTPEGFDPELDDPYKYPQQKSLALGLNVVF
MSQVFKDFDLSSVWKTNSWADENYKEAPFTPEILAAVESELGYKLPQSFIELMAVQNGGIFVKNCFPTTQRNSWAENHVQICEVSGIGFEKEGSLCGAMGQKLWLEEWEYPPIGVYFANDPSGGHAMFALDYRACGKDGEPKVVFVEQESDFEIVELAPDFETFIRSLRHEDEFIDEEI
MGSDKIHHHHHHMARPRKTIVSLDDTPYYHCCSRVVRKAFLCGIDSATGENFEHRRAWVEGRMFELATIFAMDICAYAVMSNHLHIVLRVDAEQAKQWTDKQVLIQWHKGFKGTLLTQRFVKDEVLDEFELKTVIDSVAVYRERLTSISWFIRALCEPIARMANKEDGCTGHFWEGRFKSQALLDEAAVLACMAYVDLNPVRAKMAATPETSDYTGIQRRINAALKGEQPNELLPFLGNERDNMPKGLMFSAKDYLLLVEDTGRIIRDDKRGAISRSSQYILDRLNIPTENWLKITKDFGHLFKGAVGSLQALSQYCEHLERKRRQSAANCQRWLCG
MIRGNAGIMTNYRLSNLFSLQAELNFTTHGKNYCIDGLPHRNRYGYEVTDQTLINIRLHYLELPLLAKFTLFSSQKVTFDMAAGPFIGYKLAARQKTEGGDYQNTTSDYTRLNAGYQISFGFSVMKKRLFFEMRGSRGFVPINTADATKITTMQGGVAIGYYFFSGKKK
MGPQSDSRTLISTYSQQSFQQFSFEYCYHSNTPSLPFSAIFSLYWLLHPFSASTGFSKGPQSDYRTLISTYYQQSFQQFSFEYCYHSNTPSLVSLFFSHLQPFLAIFSHFQPFSASAGFSKGPQSDSRTLISTYSQQSFQQFSFEYCCLSNTRSLVSLF
MQQQKTVQPEAKQKVEVGVLAIRGHLYAEQRWQPTIDWLNQQISDVHFELHPLNLDEMGEAVKFQTMDFILTNPGQAVRLGRQYALSWMATLTGRAPQNSNYSIGSALVVRANSPYQTLKDVSGFPVAAVSEKAFGGYLTLRYQIVEMGLDPNDFFADVRYLGFPIDANLYQLRDGNVEAAVVPACLLEQMQNEGLLQHGDFRVLNQQPNEHSSCAVSTPLYPNWSFAKTERGSSLLAKKIAQVLLAMPPEHP

Soluble on expression in E. coli, soluble:
MASQVSQMPSSSPLSSNKDEMRPKADFQPSIWGDLFLNCPDKNIDAETEKRHQQLKEEVRKMIVAPMANSTQKLAFIDSVQRLGVSYHFTKEIEDELENIYHNNNDAENDLYTTSIRFRLLREHGYNVSCDVFNKFKDEQGNFKSSVTSDVRGLLELYQASYLRVHGEDILDEAISFTTHHLSLAVASLDHPLSEEVSHALKQSIRRGLPRVEARHYLSVYQDIESHNKALLEFAKIDFNMLQFLHRKELSEICRWWKDLDFQRKLPYARDRVVEGYFWISGVYFEPQYSLGRKMLTKVIAMASIVDDTYDSYATYEELIPYTNAIERWDIKCIDEIPEYMKPSYKALLDVYEEMVQLVAEHGRQYRVEYAKNAMIRLAQSYLVEAKWTLQNYKPSFEEFKANALPTCGYAMLAITSFVGMGDIVTPETFKWAASDPKIIQASTIICRFMDDVAEHKFKHRREDDCSAIECYMEEYGVTAQEAYDVFNKHVESAWKDLNQEFLKPTEMPTEVLNRSLNLARVMDVLYREGDGYTYVGKAAKGGITSLLIEPIAL
MTTKKFRMEDVGLSKLKVEKNPKDVKQTEWKSVLPNEVYRVARESGTETPHTGGFNDHFEKGRYVCLCCGSELFNSDAKFWAGCGWPAFSESVGQDANIVRIVDRSHGMHRTEVRCKTCDAHLGHVFNDGPKETTGERYCINSVCMAFEKKD
GSPQLRQVGQIIRVPARMAATLILEPAGRCCWDEPVRIAVRGLAPEQPVTLRASLRDEKGALFQAHARYRADTLGELDLERAPALGGSFAGLEPMGLLWALEPEKPLVRLVKRDVRTPLAVELEVLDGHDPDPGRLLCQTRHERYFLPPGVRREPVRVGRVRGTLFLPPEPGPFPGIVDMFGTGGGLLEYRASLLAGKGFAVMALAYYNYEDLPKTMETLHLEYFEEAMNYLLSHPEVKGPGVGLLGISKGGELCLSMASFLKGITAAVVINGSVANVGGTLRYKGETLPPVGVNRNRIKVTKDGYADIVDVLNSPLEGPDQKSFIPVERAESTFLFLVGQDDHNWKSEFYANEACKRLQAHGRRKPQIICYPETGHYIEPPYFPLCRASLHALVGSPIIWGGEPRAHAMAQVDAWKQLQTFFHKHLGGHEGTIPSKVLEHHHHHH
MSLGECPEYGKVKWIGNIYCHKYDEATTTLLSISTGTQSLGQDLKQRQAQLSIAKLTALAAEVQDLEKLNEIQTELDLIDGQILLSQELQESTLNPLFKDFTTYRTLFKYLSDAVKRRESLSVPHMIELFTLLNQDTSYGFALSILAIDHTLPTEVKKYCEYQIWRRCLLSDENAVRQTLRVFFKQQFYHQSIELPIIDNLANEKLITDSYLDGMYHGLTDLNKLASDVKREVALFANSNLDVTMLQSIIGEINEETGNQCVINYATNTIETSPTSEGHHHHHH
MVQFLAQMPTGTSSFQAAITENEEGRLFEKYGQLLQESPPASNRPSLGIEGASGLPRPGMCPGRDCSPGSCLAALCPRPPPLYLMVPGKASGMAEAELRATLPCSCGSIPLSTPKR
MSLKKRIPTLLATMIATALYSQQGLAADLASQCMLGVPSYDRPLVQGDTNDLPVTINANHAKGDYPDDAVFTGSVDIMQGNSRLQADEVQLHQKEAPGQPEPVRTVDALGNVHYDDNQVILKGPKGWANLNTKDTNVWEGDYQMVGRQGRGKADLMKQRGENRYTILDNGSFTSCLPGSDTWSVVGSEIIHDREEQVAEIWNARFKVGPVSIFYSPYLQLPVGDKRRSGFLIPNAKYTTTNYFEFYLPYYWNIAPNMDATITPHYMHRRGNIMWENEFRYLSQAGAGLMELDYLPSDKVYEDEHPNDDSSRRWLFYWNHSGVMDQVWRFNVDYTKVSDPSYFNDFDNKYGSSTDGYATQKFSVGYAVQNFNATVSTKQFQVFSEQNTSSYSAEPQLDVNYYQNDVGPFDTRIYGQAVHFVNTRDDMPEATRVHLEPTINLPLSNNWGSINTEAKLLATHYQQTNLDWYNSRNTTKLDESVNRVMPQFKVDGKMVFERDMEMLAPGYTQTLEPRAQYLYVPYRDQSDIYNYDSSLLQSDYSGLFRDRTYGGLDRIASANQVTTGVTSRIYDDAAVERFNISVGQIYYFTESRTGDDNITWENDDKTGSLVWAGDTYWRISERWGLRGGIQYDTRLDNVATSNSSIEYRRDEDRLVQLNYRYASPEYIQATLPKYYSTAEQYKNGISQVGAVASWPIADRWSIVGAYYYDTNANKQADSMLGVQYSSCCYAIRVGYERKLNGWDNDKQHAVYDNAIGFNIELRGLSSNYGLGTQEMLRSNILPYQNTLEGHHHHHH
MNYNNKILVSESGLSQKHLIHGDEELFQHELKTIFARNWLFLTHDSLIPAPGDYVTAKMGIDEVIVSRQNDGSIRAFLNVCRHRGKTLVSVEAGNAKGFVCSYHGWGFGSNGELQSVPFEKDLYGESLNKKCLGLKEVARVESFHGFIYGCFDQEAPPLMDYLGDAAWYLEPMFKHSGGLELVGPPGKVVIKANWKAPAENFVGDAYHVGWTHASSLRSGESIFSSLAGNAALPPEGAGLQMTSKYGSGMGVLWDGYSGVHSADLVPELMAFGGAKQERLNKEIGDVRARIYRSHLNCTVFPNNSMLTCSGVFKVWNPIDANTTEVWTYAIVEKDMPEDLKRRLADSVQRTVGPAGFWESDDNDNMETASQNGKKYQSRDSDLLSNLGFGEDVYGDAVYPGVVGKSAIGETSYRGFYRAYQAHVSSSNWAEFEHASSTWHTELTKTTDR
MAHHHHHHMMRQNLTSDSLITDTLRKAGVPCDVVGIVETVAGACRAIAAGLRNDGVTAAKSKNNFGDDVLSVDVMADKIISEALNSCQHVASYVSEESPSLASTAHSGKATYSVSYDPLDGSSIITSNFTVGSIFAVWPGNTPIGLTVRDMAASVVAVYGPRVVLFVGQEELGVAEFFCGADGEWKLAKRVWAGVCTPRTATVTAAGRGVKLKATVFSPGNLRAVRHLPWYKQLITMYMQEGATLRYTGGMVPDVCQIIVKGDGIYMTPASPQHKMKLRLLFEAAPMAFLIHCAGGRSTTGLTNMMNVRVVSMEQTTPIALGCARDVERYERMCRGCSKL
MSRFVQDLSKAMSQDGASQFQEVILQELELSVKKELEKILTTAASHEFEHTKKDLDGFRKLFHRFLQEKGPSVDWGKIQRPPEDSIQPYEKIKARGLPDNISSVLNKLVVVKLNGGLGTSMGCKGPKSLIGVRNENTFLDLTVQQIEHLNKTYNTDVPLVLMNSFNTDEDTKKILQKYNHCRVKIYTFNQSRYPRINKESLLPIAKDVSYSGENTEAWYPPGHGDIYASFYNSGLLDTFIEEGKEYIFVSNIDNLGATVDLYILNHLMNPPNGKRCEFVMEVTNKTRADVKGGTLTQYEGKLRLVEIAQVPKAHVDEFKSVSKFKIFNTNNLWISLGAVKRLQEQNAIDMEIIVNPKTLDGGLNVIQLETAVGAAIKSFENSLGINVPRSRFLPVKTTSDLLLVMSNLYSLNAGSLTMSEKREFPTVPLVKLGSSFTKVQDYLRRFESIPDMLELDHLTVSGDVTFGKNVSLKGTVIIIANHGDRIDIPPGAVLENKIVSGNLRILDH
MVMAAVIHKKGGPDNFVWEEVKVGSPGPGQVRLRNTAIGVNFLDTYHRAGIPHPLVVGEPPIVVGFEAAAVVEEVGPGVTDFTVGERVCTCLPPLGAYSQERLYPAEKLIKVPKDLDLDDVHLAGLMLKGMTAQYLLHQTHKVKPGDYVLIHAAAGGMGHIMVPWARHLGATVIGTVSTEEKAETARKLGCHHTINYSTQDFAEVVREITGGKGVDVVYDSIGKDTLQKSLDCLRPRGMCAAYGHASGVADPIRVVEDLGVRGSLFITRPALWHYMSNRSEIDEGSKCLFDAVKAGVLHSSVAKTFPLREAAAAHKYMGGRQTIGSIVLLPQA
